Reference: paper PMC12149299 (Cell Discovery, 2025)

What was measured:
[1] = biological target: T1, HIV-1 gp120 protein from the JRCSF.JB strain (HIV-1 group M subtype B, JRCSF (clone …, UniProt P20871, strain)); experiment: ELISA; antigens (2 μg/mL) coated on 96-well plates overnight at 4 °C; antibodies serially diluted in disruption buffer, 1 h; HRP goat anti-human IgG, ABTS, 405 nm; settings: both partners purified
[2] = biological target: HIV-1 gp120 protein from the YU2.DG strain (HIV-1 group M subtype B, YU-2 (clone …, UniProt P35961, strain)); experiment: as above; settings: both partners purified
[3] = biological target: HIV-1 gp120 protein from the BaL.01 strain (HIV-1 subtype B, BaL.01, UniProt Q2MKA9, strain); experiment: as above; settings: both partners purified
[4] = biological target: HIV-1 Env on TNF-α-activated ACH-2 latent HIV-1 cells (HIV-1 group M subtype B, BRU/LAI (ACH-2 …, UniProt P03377, strain)); experiment: flow cytometry on cells; settings: one partner purified
HIV Env on HL2/3 cells = biological target: T2, HIV Env on HL2/3 cells (HIV-1 group M subtype B, HXB2 (stand-in …, UniProt P04578, strain)); experiment: flow cytometry on cells; settings: one partner purified
T2 construct: source: HL2/3 cells (NIH AIDS Program), expressing HIV Env, on the cell surface

[5] = biological target: T1, HIV-1 gp120 protein from the JRCSF.JB …; experiment: ELISA; settings: both partners purified

Measured: binding result

B1: FD22 (antibody, V domains shown)
VH: QVQLSQSGGGAVQPGKSLTLSCRAYGFHLFSYVVVWVRQTPQNGLEWVAGAASGGWPQEFMNSVRGRFSISRDDYTVSLQMNALRVDDSGLYFCAQERGLHRLDGAVKFGRWFRAWGQGSQVVVTS
VL: QSALTQPASVSGSPGQSITLSCTGADNSVSWYQVVPGRAPKLLIFEVNVRPSEVSDRFSGSKSGDTASLTISRLQIEDESDYYCVTRRGDVTYLFGSGTRVSVL
notes: also called FD22-biotin
binds: [1] | [2] | [3] | [4] | HIV Env on HL2/3 cells

B2: CH235.12 (antibody, V domains shown)
VH: QVRLAQYGGGVKRLGATMTLSCVASGYTFNDYYIHWVRQAPGQGFELLGYIDPANGRPDYAGALRERLSFYRDKSMETLYMDLRSLRYDDTAMYYCVRNVGTAGSLLHYDHWGSGSPVIVSS
VL: EIVLTQSPATLSASPGERVTLTCRASRSVRNNVAWYQHKGGQSPRLLIYDASTRAAGVPARFSGSASGTEFTLAISNLESEDFTVYFCLQYNNWWTFGQGTRVDIK
binds: [5]
